This note sets out measurements from paper PMC3215702, “The Nuclear Pore Complex Mediates Binding of the Mig1 Repressor to Target Promoters” (PLoS ONE, 2011).

Assay [1] has as its target nuclear pore complex of nup133Δ cells (S. cerevisiae (endogenous)) (UniProt P52891). Nature of the assay: co-fractionation with isolated NPCs (QFPD, quantitative fluorescent protein detection); glucose-grown (repressing) cells; nuclei isolated on sucrose/PVP-40 gradients, lysed with DNase I, NPC fraction floated on sucrose/Nycodenz gradient; GFP fluorescence of the fractions read on a Typhoon imager; values relative to wild type; also done in gcr1Δ and gcr1Δ nup84Δ strains.

Assay [2] addresses nuclear pore complex of nup84Δ cells (S. cerevisiae (endogenous)) (UniProt P35729). The description is as above.
Assay [3] addresses nuclear pore complex of nup120Δ cells (S. cerevisiae (endogenous)) (UniProt P52891). The description is as above.
The target in another assay is T1, Mig1-GFP fusion protein (S. cerevisiae, UniProt P27705 1-504).
T1 construct: Mig1, glucose-regulated repressor of S. cerevisiae; GFP tag integrated at the MIG1 locus; Called a fully functional fusion; also called GFP-tagged Mig1; source: S. cerevisiae, Mig1-GFP strain from the Yeast GFP Clone collection (Invitrogen), integrated GFP tag; in crude lysate or cell fractions
T1 sequence (P27705 whole entry, the tested form may be a part): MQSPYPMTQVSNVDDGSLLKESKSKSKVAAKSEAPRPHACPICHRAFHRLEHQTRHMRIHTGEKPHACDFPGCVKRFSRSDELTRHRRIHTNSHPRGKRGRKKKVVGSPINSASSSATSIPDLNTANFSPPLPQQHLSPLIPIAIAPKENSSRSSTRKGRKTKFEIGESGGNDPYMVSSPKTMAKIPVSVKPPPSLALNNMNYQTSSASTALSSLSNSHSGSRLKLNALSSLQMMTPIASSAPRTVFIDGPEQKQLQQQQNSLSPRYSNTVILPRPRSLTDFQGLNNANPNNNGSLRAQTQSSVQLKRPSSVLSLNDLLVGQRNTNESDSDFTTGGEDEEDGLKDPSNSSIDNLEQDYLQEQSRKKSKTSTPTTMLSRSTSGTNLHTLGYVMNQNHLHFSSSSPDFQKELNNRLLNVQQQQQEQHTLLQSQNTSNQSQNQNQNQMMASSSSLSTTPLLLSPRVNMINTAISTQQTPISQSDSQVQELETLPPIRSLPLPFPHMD
Kind of assay: co-IP; anti-GFP antibody added to crude lysate of glucose-grown cells, protein A sepharose; eluate blotted and probed with anti-lexA antibody (anti-GFP as control). The conditions noted are these: partners not purified.

Sequence of nuclear pore complex of nup133Δ cells (S. cerevisiae (endogenous)) (P52891 whole entry, looked up, stated change not applied, one chain of several): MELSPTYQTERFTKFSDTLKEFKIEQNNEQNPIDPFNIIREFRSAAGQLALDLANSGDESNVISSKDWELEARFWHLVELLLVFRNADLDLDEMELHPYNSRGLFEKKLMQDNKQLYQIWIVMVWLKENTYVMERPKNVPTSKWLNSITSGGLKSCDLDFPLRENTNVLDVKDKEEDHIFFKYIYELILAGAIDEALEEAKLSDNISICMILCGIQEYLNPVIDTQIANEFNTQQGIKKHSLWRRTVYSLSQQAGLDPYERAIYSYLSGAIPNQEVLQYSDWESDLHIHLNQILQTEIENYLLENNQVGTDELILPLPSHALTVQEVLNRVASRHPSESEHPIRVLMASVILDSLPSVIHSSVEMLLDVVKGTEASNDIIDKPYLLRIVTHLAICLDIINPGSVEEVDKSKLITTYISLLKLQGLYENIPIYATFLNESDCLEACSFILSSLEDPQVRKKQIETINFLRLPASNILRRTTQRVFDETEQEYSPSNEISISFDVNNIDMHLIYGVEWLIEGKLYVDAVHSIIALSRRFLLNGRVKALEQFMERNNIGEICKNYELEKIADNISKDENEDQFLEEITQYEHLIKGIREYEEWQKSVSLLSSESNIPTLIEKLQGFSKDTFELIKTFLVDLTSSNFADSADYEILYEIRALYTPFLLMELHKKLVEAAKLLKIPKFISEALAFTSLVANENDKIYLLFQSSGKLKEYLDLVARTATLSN
Sequence of nuclear pore complex of nup120Δ cells (S. cerevisiae (endogenous)) (P52891 whole entry, looked up, stated change not applied, the tested form may be a part, one chain of several): as the sequence (P52891 whole entry, looked up, stated change not applied, one chain of several) above
Sequence of nuclear pore complex of nup84Δ cells (S. cerevisiae (endogenous)) (P35729 whole entry, looked up, stated change not applied, one chain of several): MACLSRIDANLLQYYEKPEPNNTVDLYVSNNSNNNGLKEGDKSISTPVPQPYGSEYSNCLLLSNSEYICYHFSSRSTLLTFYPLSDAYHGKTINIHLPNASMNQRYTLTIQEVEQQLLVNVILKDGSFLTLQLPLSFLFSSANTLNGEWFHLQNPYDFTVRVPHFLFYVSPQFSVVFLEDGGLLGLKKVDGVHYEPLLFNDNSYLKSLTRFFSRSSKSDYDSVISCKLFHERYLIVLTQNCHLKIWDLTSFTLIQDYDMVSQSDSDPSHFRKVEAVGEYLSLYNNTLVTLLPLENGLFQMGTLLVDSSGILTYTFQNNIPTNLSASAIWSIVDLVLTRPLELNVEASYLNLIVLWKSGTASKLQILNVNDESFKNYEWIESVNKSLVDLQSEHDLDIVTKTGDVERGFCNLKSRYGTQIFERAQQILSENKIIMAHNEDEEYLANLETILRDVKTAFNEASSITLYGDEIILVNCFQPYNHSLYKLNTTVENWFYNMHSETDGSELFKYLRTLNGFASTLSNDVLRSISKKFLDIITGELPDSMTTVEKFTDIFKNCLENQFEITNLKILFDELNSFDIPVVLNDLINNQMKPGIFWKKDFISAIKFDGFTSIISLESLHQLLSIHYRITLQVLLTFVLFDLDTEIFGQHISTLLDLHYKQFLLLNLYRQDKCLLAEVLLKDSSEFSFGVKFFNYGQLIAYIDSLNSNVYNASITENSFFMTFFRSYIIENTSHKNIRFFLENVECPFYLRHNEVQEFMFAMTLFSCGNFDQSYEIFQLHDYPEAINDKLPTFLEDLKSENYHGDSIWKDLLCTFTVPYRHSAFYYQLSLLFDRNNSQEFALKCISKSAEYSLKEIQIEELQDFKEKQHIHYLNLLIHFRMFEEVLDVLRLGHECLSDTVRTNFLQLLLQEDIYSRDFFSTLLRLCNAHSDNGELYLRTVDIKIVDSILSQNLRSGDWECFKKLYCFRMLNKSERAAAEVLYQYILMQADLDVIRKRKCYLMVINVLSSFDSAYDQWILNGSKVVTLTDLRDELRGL

In the case of “Mig1-GFP fusion protein (from UniProt P27705 1-504) (natural protein)”, the results for the perinuclear Mig1 relative to wild type (relative to wild type (1.00)) in assay [1], in assay [2] and in assay [3] were 0.03, 1.3 and 0.43, respectively.

B1: Nup53-lexA (natural protein, S. cerevisiae, UniProt Q03790 1-475, looked up)
chain: MADLQKQENSSRFTNVSVIAPESQGQHEQQKQQEQLEQQKQPTGLLKGLNGFPSAPQPLFMEDPPSTVSGELNDNPAWFNNPRKRAIPNSIIKRSNGQSLSPVRSDSADVPAFSNSNGFNNVTFGSKKDPRILKNVSPNDNNSANNNAHSSDLGTVVFDSNEAPPKTSLADWQKEDGIFSSKTDNIEDPNLSSNITFDGKPTATPSPFRPLEKTSRILNFFDKNTKTTPNTASSEASAGSKEGASTNWDDHAIIIFGYPETIANSIILHFANFGEILEDFRVIKDFKKLNSKNMSKSPSLTAQKYPIYTGDGWVKLTYKSELSKSRALQENGIIMNGTLIGCVSYSPAALKQLASLKKSEEIINNKTSSQTSLSSKDLSNYRKTEGIFEKAKAKAVTSKVRNAEFKVSKNSTSFKNPRRLEIKDGRSLFLRNRGKIHSGVLSSIESDLKKREQASKSKKSWLNRLNNWLFGWNDL
notes: Nup53, nucleoporin, S. cerevisiae; source: S. cerevisiae Mig1-GFP strain, in crude lysate
Regarding B1, in the assay with Mig1-GFP fusion protein, the “fold reduction in co-immunoprecipitation relative to Nup84-lexA” value was over 2 fold.
